# Data taken from patent US12662676B2, “Aptamer nucleic acid molecule, and complex and application thereof” (EAST CHINA UNIVERSITY OF SCIENCE AND TECHNOLOGY, priority 2019, dated 2026).
# Tests used:
# [1] = tested on: BL21(DE3, Star) E. coli strain expressing F30-Pepper-1; experiment: Labeling of bacterial RNA; format: cell-based; settings: 2 μM III-3 in PBS, 4 hours after IPTG induction
# From the text: In order to test the effect of Pepper-III-3 in bacteria, a bacterial expression plasmid expressing F30-Pepper-1 was constructed. Primers were used to amplify F30-Pepper-1 in Example 2. Primers were used to amplify pET28a to remove the promoter and multiple cloning site regions. The obtained F30-Pepper-1 fragment and the linearized pET28a were ligated according to the commonly used experimental method (4). The obtained recombinant plasmid was named pET28a-T7-F30-Pepper-1.
# The recombinant plasmid pET28a-T7-F30-Pepper-1was transformed into BL21(DE3, Star) E. coli strain. A single clone was picked and cultured at 37° C. to an OD600 around 0.2 before addition of 1 mM IPTG to induce the expression of F30-Pepper-1. 4 hours after induction, the bacteria were harvested and resuspended in PBS solution containing 2 μM III-3. BL21 (DE3, Star) E. coli transformed with pET28a empty vector was used as the control.
# [2] = tested on: BY4741 strain expressing F30-Pepper-1; experiment: Labeling of yeast RNA; format: cell-based; settings: 2 μM III-3 in PBS, 10 hours after galactose induction
# From the text: In order to test the effect of Pepper-III-3 in yeast, a yeast expression plasmid expressing F30-Pepper-1 was constructed. The F30-Pepper-1 DNA fragment in Example 2 was amplified using primers, and the amplified F30-Pepper-1 fragment was inserted into the pYES2.1TOPO TA vector according to the commonly used experimental method (4). The obtained recombinant plasmid was named pYES2.1-F30-Pepper-1.
# The recombinant plasmid pYES2.1-F30-Pepper-1 was transformed into BY4741 strain, and a single clone was picked and cultured at 30° C. to an OD600=0.1 before addition of 1 mM galactose to induce the expression of F30-Pepper-1. 10 hours after induction, the yeast cells were harvested and resuspended in PBS containing 2 μM III-3. The untreated BY4741 strain was used as the control.
# [3] = Pepper-based GTP sensor; format: biochemical; settings: with III-3, presence vs absence of GTP; linkage 3
# Description: In order to construct Pepper-based sensors for detecting analytes, the nucleotides in the stem-loop region in the Pepper-1 (SEQ ID No: 2) structure were replaced with the aptamers that can specifically recognize and bind adenosine and guanosine (GTP), respectively. The aptamers Pepper-1 were fused by linkage with different lengths and different nucleotides (FIG. 10A). The RNA sensors were prepared according to the commonly used experimental method (1). The RNA sensors were incubated with III-3 fluorophore, and the fluorescence was measured in the presence or absence of adenosine or GTP using a multifunctional microplate reader.
# [4] = Fluorescence activation of III-3 fluorophore by Pepper aptamers and mutants; format: biochemical; settings: 1 μM III-3 with 5 μM RNA
# Description: Preparation of Pepper or Pepper mutant aptamer according to the commonly used experimental method (1). 5 μM aptamer and 1 μM fluorophore were incubated in the detection buffer (40 mM HEPES, pH 7.4, 125 mM KCl, 5 mM MgCl2, 5% DMSO). The maximal excitation and emission peaks of the aptamer-fluorophore complexes were determined using a Synergy Neo2 multifunctional microplate reader. The fluorescence intensities of the aptamer-fluorophore complexes at the maximal excitation and emission peaks were determined using a Synergy Neo2 multifunctional microplate reader. The control sample (1 μM fluorophore without aptamer) was also measured under the same conditions. Then the ratios of fluorescence intensity were calculated. For example, the fluorescence maximal excitation and emission peaks of the complex of 5 μM F30-Pepper-2 and 1 μM III-3 fluorophore are 485 nm and 530 nm, respectively. The fluorescence intensity of the complex at 485±10 nm excitation and 530 nm±10 nm emission was 36,000, the fluorescence intensity of the control sample (1 μM III-3 fluorophore only) under the same detection conditions was 10. Thus, the activation ratio of F30-Pepper-2 aptamer on III-3 fluorophore was 3,600-fold.
# In order to detect the fluorescence activation of III-3 fluorophore by different Pepper mutant, the Pepper-1 sequence in F30-Pepper-1 was mutated according to Table 1. […] 1 μM III-3 was incubated with […] RNA and their fluorescence activation folds were determined according to the commonly used experimental method (5). […] In summary, many Pepper mutants containing single and multiple mutants still retain the ability to activate the fluorescence of III-3 fluorophore.
# In order to detect the activation of III-3 by modified Pepper, base-modified Pepper-3 was synthesized (SEQ ID NO: 6, the underlined nucleotides in […] GGCC contain deoxyribonucleotide bases) and Pepper-4 (SEQ ID NO: 7, the underlined nucleotides in […] GGGCC contain 2′-F modification) (synthesized by Shanghai GenePharma Co., Ltd), which contain deoxyribonucleotides replacement (shaded bases in FIG. 5A) or 2′-F modification (shaded bases in FIG. 5B) in the stem-loop region of Pepper. Detection of the fluorescence activation of III-3 fluorophore by these modified Peppers was carried out according to the commonly used experimental method (5).
# [5] = Binding constant of Pepper and III-3; settings: 2 nM F30-Pepper-1 with different concentrations of III-3
# Description: In order to detect the binding constant of Pepper and III-3, 2 nM F30-Pepper-1 was incubated with different concentrations of III-3 and their fluorescence was determined.
# [6] = Native PAGE oligomerization identification; settings: F30-Broccoli and F30-2dBroccoli as controls
# From the text: In order to detect whether Pepper binds to III-3 in the form of monomer or polymer, F30-Pepper-1 was identified by the Native PAGE using the monomeric F30-Broccoli (SEQ ID NO: 4) and F30-2dBroccoli (SEQ ID NO: 5) (Filonov et al. Journal of the American Chemical Society 2014. 136: 16299-16308; Filonov et al. Chemistry & biology 2015. 22: 649-660) as the controls. The fluorescence imaging result was compared with the staining result by SYBR Gold (universal nucleic acid dye that was purchased from Invitrogen).
# [7] = Thermostability of Pepper (fluorescence after 5 minutes at different temperatures); format: physicochemical; settings: 1 μM aptamer with 10 μM fluorophore (III-3 for F30-Pepper-1, DFHBI-1T for F30-Broccoli), 5 minutes at each temperature
# Description: In order to test the thermostability of Pepper, 10 μM III-3 was incubated with 1 μM F30-Pepper-1, and then was placed at different temperatures for 5 minutes before the fluorescence was determined. 10 μM DFHBI-1T was incubated with 1 μM F30-Broccoli to be as the control.
# [8] = RNA extraction and purification with Mal-III-3 beads, in-gel fluorescence; settings: gel incubated with 5 μM III-3 for 30 min
# Description: In order to use Pepper for RNA extraction and purification, the pCDNA3.1 hygro(+)-TagBFP-4Pepper-7 and pCDNA3.1 hygro(+)-mCherry-4Pepper-7 plasmids in Example 12 were transfected into COS-7 cells, respectively. 24 hours after transfection, the cells were collected and the total RNA of the cells was extracted using the Easyp Super Total RNA Extraction Kit (Promega). The extracted total RNA was dissolved in buffer containing 40 mM HEPES, pH 7.4, 125 mM KCl, 5 mM MgCl2. The RNA was incubated at 70° C. for 10 min and placed at room temperature for more than 30 min.
# 500 μL activated Thiol Sepharose 4B (GE Healthcare) was washed twice with 500 μL PBS, and then was incubated with PBS containing 10 mM TCEP (Sigma) for 1 h at room temperature. After washing twice with 500 μL PBS, maleamide conjugated III-3 fluorophore (Mal-III-3) was added to react for 30 min at room temperature, and was washed three times with 500 μL PBS. The treated total RNA was incubated with the treated beads at room temperature. After 30 minutes, the mixture was centrifuged at 4000 rpm for 2 minutes, and the supernatant was discarded. […]
# The recovered RNA was validated by electrophoresis. The gel was incubated with buffer containing 5 μM III-3 in 40 mM HEPES, pH 7.4, 125 mM KCl, and 5 mM MgCl2 for 30 min, and the fluorescence of 4Pepper-III-3 in the gel was detected.
molecule,measurement,setting,value
CN(CCO)c1ccc(/C=C(\C#N)c2ccc(C#N)cc2)cc1 [III-3],fluorescent labeling of RNA in bacteria,[1],bright yellow-green fluorescence only when F30-Pepper-1 was expressed and in the presence of III-3
same,RNA labeling in yeast cells,[2],bright yellow-green fluorescence only when F30-Pepper-1 was expressed and in the presence of III-3
"GTP sensor: Pepper-1 with stem-loop replaced by GTP aptamer, linkage 3, SEQ ID No:22 (UCCCCAAUCGUGGCGUGUCGUAAGAAGAGCACGUAUACGCAAUAACUGGCGCCGGGA; listed as RNA, chemistry not given here)",activation fold of GTP sensor,[3],10 folds
"F30-Pepper-1: RNA aptamer, Pepper-1 in F30 scaffold RNA, SEQ ID NO: 2 (nucleic acid, RNA, backbone not given here) UUGCCAUGUGUAUGUGGGUUCGCCCACAUACUCUGAUGAUCCCCAAUCGUGGCGUGUCGGCCUGCUUCGGCAGGCACUGGCGCCGGGAUCAUUCAUGGCAA",Activation folds,[4]; Activation of III-3 by Pepper mutants with multiple mutations,3600 folds
same,Activation folds,[4]; Activation of III-3 by Pepper mutants with single mutation,3600 folds
same,Kd,[5],3.5 nM
same,form in which aptamer binds III-3 (monomer or polymer),[6],monomer
same,Tm,[7],55 °C
"mCherry-4Pepper: mCherry mRNA fused with 4Pepper-7, SEQ ID No: 26 (nucleic acid) AUGGUGAGCAAGGGCGAGGAGGAUAACAUGGCCAUCAUCAAGGAGUUCAUGCGCUUCAAGGUGCACAUGGAGGGCUCCGUGAACGGCCACGAGUUCGAGAUCGAGGGCGAGGGCGAGGGCCGCCCCUACGAGGGCACCCAGACCGCCAAGCUGAAGGUGACCAAGGGUGGCCCCCUGCCCUUCGCCUGGGACAUCCUGUCCCCUCAGUUCAUGUACGGCUCCAAGGCCUACGUGAAGCACCCCGCCGACAUCCCCGACUACUUGAAGCUGUCCUUCCCCGAGGGCUUCAAGUGGGAGCGCGUGAUGAACUUCGAGGACGGCGGCGUGGUGACCGUGACCCAGGACUCCUCCCUGCAGGACGGCGAGUUCAUCUACAAGGUGAAGCUGCGCGGCACCAACUUCCCCUCCGACGGCCCCGUAAUGCAGAAGAAGACCAUGGGCUGGGAGGCCUCCUCCGAGCGGAUGUACCCCGAGGACGGCGCCCUGAAGGGCGAGAUCAAGCAGAGGCUGAAGCUGAAGGACGGCGGCCACUACGACGCUGAGGUCAAGACCACCUACAAGGCCAAGAAGCCCGUGCAGCUGCCCGGCGCCUACAACGUCAACAUCAAGUUGGACAUCACCUCCCACAACGAGGACUACACCAUCGUGGAACAGUACGAACGCGCCGAGGGCCGCCACUCCACCGGCGGCAUGGACGAGCUGUACAAGUAACUCGCUAGAGCAUGGUUAAGCUUCCCACGGAGGAUCCCCAAUCGUGGCGUGUCGGCCUCUCCCAAUCGUGGCGUGUCGGCCUCUCCCAAUCGUGGCGUGUCGGCCUCUCCCAAUCGUGGCGUGUCGGCCUCUCUUCGGAGAGGCACUGGCGCCGGAGAGGCACUGGCGCCGGAGAGGCACUGGCGCCGGAGAGGCACUGGCGCCGGGAUCCUCCGUGGG",in-gel fluorescence of recovered RNA,[8],bright Pepper-III-3 fluorescence signals
